From the nanobody polyreactivity screen of Harvey et al. (2022) come the findings set out here.

The nature of this data set: yeast display, Sf9 membrane polyspecificity reagent, FACS + sequencing; frameworks hold sequencing errors. The method, boiled down: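 Genes from sorted yeast were amplified by colony PCR, read by MiSeq 2 × 250 sequencing and filtered on CDR length. These cells carried a synthetic nanobody library in Saccharomyces cerevisiae BJ5465 and were sorted by FACS into low and high (top ~1%) gates on anti-HA and streptavidin fluorescence. Polyreactivity is labelled according to the gate of origin.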
“QVQLVESGGGLVQAGGSLRISCAASGSTFYYYAMGWYRQAPGKEREFVAAITFRCGTTYYADSVKGRFTISRDYAKNTVYLQMNSLKREDTAVYYCDAKPPFRNYVRYDYWGQGTQVTVSS”: the “polyreactivity (PSR sort gate)” value is recorded as “high polyreactivity”.
Turning to “QVQLVESGGGLVQAGGSLRISCAASGSTLFNYAMGWYRQAPGKERELVAAIDWGDGTTYYADSVKGRFTISRDNAKNTVYLQMNSLQPEDTAVYYCAAEEFYSPYDYWGQGTQVTVSS”, the “polyreactivity (PSR sort gate)” value is “high polyreactivity”.
Take “QVQLVESGGGLVQAGGSLRISCAASGSTLYRNAMGWYRQAPGKEMELVAAISSSGGTTFYADSVKGRFTISRDNAKNTVYLQMNSLKPEDTAVYYCNRNARKLRTVHSSVFGLDYWGQGTQVTVSS”: the “polyreactivity (PSR sort gate)” value is “low polyreactivity”.
Regarding “QVQLVESGGGLVQAGGSLRISCAASGSTYRKYTMGWYRQAPGNERDLVATISWSGGSTNYADSVKGRFTISRDNAKTIVYLQMISLKPDDTAVYYCNAYVSPRYRGSRYYYWGQGTQVTVSS”, the “polyreactivity (PSR sort gate)” value is listed as “high polyreactivity”.
Turning to “QVQLVESGGGLVQAGGSLRISCAASGYIFAVYAMGWYRQAPGKEREFVAVITWRGGSTYYADSVKGRFTISRDNAKNTVYLQMNSLKPEDTAVYYCAARWHFLTSSRFDYWGQGTQVTVSS”, the “polyreactivity (PSR sort gate)” value is “high polyreactivity”.
Regarding “QVQLVESGGGLVQAGGSLRISCAASGYIFFGNAMGWYRQAPGKERELVAAIRGRGTSTYYADSVKGRFTISRDNAKNTVYLQMNSLKPEDTAVYYFAADVVRSNFYGTFLYDYDYWGQCTQVTVSS”, the “polyreactivity (PSR sort gate)” value is on record as “low polyreactivity”.
As for “QVQLVESGGGLVQAGGSLRISCAASGYIFGTYAMGWYRQAPGKERELVAAISSTGRTYYADSVKGRFTISLDNAMNNVYLQMNRLKPEYTAVYYCAADVRTPSEGYDYWGQGTQVTVSS”, the “polyreactivity (PSR sort gate)” value is listed as “high polyreactivity”.
As to “QVQLVESGGGLVQAGGSLRISCAASGYNSYSNAMGWYRQAPGKERELVASILSGGSTNYADSVKGRFTISRDNAKNTVYLQMNSLKPEDTAVSYCATRVRTRTGYQYYYWGQGTQVTVSS”, the “polyreactivity (PSR sort gate)” value is recorded as “high polyreactivity”.
Consider “QVQLVESGGGLVQAGGSLRISCAASGYTFGKNAMGWYRQAPGKERELVAGISSRGGSTYYADSVKGRFTISRDNAKNTLYLQMNSLKPEDTAVYYCAAVAYTGGPRKLGFNYWGQGTQVTVSS”, for which the “polyreactivity (PSR sort gate)” value was “high polyreactivity”.
As for “QVQLVESGGGLVQAGGSLRISCAASGYTVKSYAMGWYRQAPGKERELVAAISNGGNTYYADSVKGRFTISRDNAKNTVYLQMNSLKPEDTAVYYCAARYGYFYSRYDHWGQGTQVTVSS”, the “polyreactivity (PSR sort gate)” value was “low polyreactivity”.
In the case of “QVQLVESGGGLVQAGGSLRISCAASVSIFARYAMGWYRQAPGQERELVAAISSRGGSTYYADSVKGRFTISRDNAKNTVYLQMNSLKPEDTAVYYCNKGYLVRPGVYWGQGTQVTVSS”, the “polyreactivity (PSR sort gate)” value is recorded as “high polyreactivity”.
Turning to “QVQLVESGGGLVQAGGSLRISCDASGSIYSSNALGWYSQAPGKERELVAAISSSGSRTYYADSVKGRFTISRDKALITVYVQMNSLIPVDTAVDYWAAVIRYTRSYDYWGQGTQVTVSS”, the “polyreactivity (PSR sort gate)” value is “high polyreactivity”.
On to “QVQLVESGGGLVQAGGSLRISCPASGTFYYYGMGWSRQAPGKERELVAAISWSGTSTFYADSVKGRFTISRDNAKNTVYIQMKSLKPEDTAVYYCHKPKFDSSGHDYWGQGTQETVSS”, for which the “polyreactivity (PSR sort gate)” value is “low polyreactivity”.
On to “QVQLVESGGGLVQAGGSLRISSAASGNIFLYYAMGWYRQAPGKERELVAYIDSSGASTYYADSVKGRFTISRDNAKNTVYLQMNSLKPEDTAVYFCASDEGTVGGQQLRPLMDYWGQGTQVTVSS”, for which the “polyreactivity (PSR sort gate)” value is recorded as “low polyreactivity”.
For the sequence “QVQLVESGGGLVQAGGSLRISSAASGRIFVTNAMRWYRQAPGKERELLAAITRGGNTNYADSVKGRFTISRDNAKNTVYLQMNSLKPEDTAVYYCAADTSYDSVYGYFPGYYYWGQGTQVTVSS”, the “polyreactivity (PSR sort gate)” value was “low polyreactivity”.
With “QVQLVESGGGLVQAGGSLRITCAASGIIFGSYAMGWYRQAPGKETELVAAISTSGGSTYYADSVKGRFTISRDNAKNTVYLQMNSLKPEDTAVYYCNKAGVYRDSSRYNYWGQGTQVTVSS”, the “polyreactivity (PSR sort gate)” value was “high polyreactivity”.
Consider “QVQLVESGGGLVQAGGSLRITCAASGSTFGPYVMGWYRQAPGKEMELVAAISLSGASTYYADSVKGRFTISRDNAKNNVYLQMISLKPEETAVYYCAAQTPYGMYYWGQGTQVTVSS”, for which the “polyreactivity (PSR sort gate)” value is “low polyreactivity”.
On to “QVQLVESGGGLVQAGGSLRLCCAASGRIFAGNAMGWYRQAPGKEREFVAGISKGGGRTYYADSVKGRCTISRDNAKKTVYLQMNSLKPEDTAVYYCAALPPRASSDAGGWYVAEDYWGQGTQVTVSS”, for which the “polyreactivity (PSR sort gate)” value is listed as “high polyreactivity”.
In the case of “QVQLVESGGGLVQAGGSLRLCCAASGYIFGWYTMGWYRPAPGKERELVAAISGGGRTYYADSVKGRFTISRDNAKNTVYLQKNSLKPEDTAVYYCNAYSTYIKYDYWGQGTQVTVSS”, the “polyreactivity (PSR sort gate)” value is listed as “high polyreactivity”.
As for “QVQLVESGGGLVQAGGSLRLCCAAYGSIFARNSMGWYRHAPGKERELVAVITTGGRTYYADSVKGRFTISRDNAKNTVYLQMNSMKPEDTAVYYCATRVIYGNSGGYWGKGTQVTVSS”, the “polyreactivity (PSR sort gate)” value was “high polyreactivity”.
“QVQLVESGGGLVQAGGSLRLICAASGFIFDSYAMGWYRQAPGKARELVAAISVNGGTTYYADSVKGRFTISRDNAKNTVYLQMISLKPEDTAVYFCNADLYYDVGQPMDYWGQGTQVTVSS”: the “polyreactivity (PSR sort gate)” value is recorded as “low polyreactivity”.
As to “QVQLVESGGGLVQAGGSLRLICAASGFIFFSNAMGWYRQAPGKERELVAVIDRATSTYYADSVKGRFTISRDNAKNTFYLQLNSLKPEDTAVYYCNADGEEVYDFNYFLSFKGDYWGQGTQVTVSS”, the “polyreactivity (PSR sort gate)” value was “low polyreactivity”.
The result for “QVQLVESGGGLVQAGGSLRLICAASGFIFGKYVMGWYRQAAGKERELVAAITSSGGRTYYADSVKGRFTISRDNAKNTVYLQMNSLKPEDTGVYYCAARYVSYWPWFEYDYWGQGTQVTVSS” reads “high polyreactivity”; that for “QVQLVESGGGLVQAGGSLRLICAASGFIFSYYAMGWYRQAPGKERELVAAISKTGGNTYYADSVKGRFTISRDYAKNTVYLQMNSLKPEDTAVYYCNALRGDWRDMGYWGQGTQVTVSS”, “high polyreactivity”; that for “QVQLVESGGGLVQAGGSLRLICAASGFIFWIYAMGWYRQAPGKEREFVAVITYRGDTTYYADSVKGRFTISRDNAKNTVYLQMNSLKPEDTAVYYCAAYTVQKYGYWGQGTQVTVSS”, “low polyreactivity”.
For the sequence “QVQLVESGGGLVQAGGSLRLICAASGFNLEYYSMGWYRQATGKERELVAVITESDGNTYYPDSVKGRFTISRDTAKNTVYLQMYSLKPEDTALYYCAAPYSFIQGGIRRGYHGYVYWGQGTQVTVSS”, the “polyreactivity (PSR sort gate)” value is “low polyreactivity”.
As for “QVQLVESGGGLVQAGGSLRLICAASGFTFAKYAMGSYTQAPGKERQLVAGITGNSGTTYYADSVKGRFTISRDNAKNTVYLQMNSLKPEDTAVYYCAAEEVSWNGTGDYWGQGTQVTVSS”, the “polyreactivity (PSR sort gate)” value was “high polyreactivity”.
As for “QVQLVESGGGLVQAGGSLRLICAASGFTFGYYAMGWYRQAPGKEREFVARISWSGDSTYYADSVKGRFTISRDNAKNTVYLQMTSLKPEDTAVYYCAARFTRQMYYWGQGTQVTVSS”, the “polyreactivity (PSR sort gate)” value was “high polyreactivity”.
As for “QVQLVESGGGLVQAGGSLRLICAASGFTFLVNAMGWYRQAPGKERELVAAISSGGSTYYADSVKGRFTISRDNAKNTVYLQMNSLKPEDTAVYYCAAPTDFLFWEFDYWGQGTQVTVSS”, the “polyreactivity (PSR sort gate)” value is reported as “low polyreactivity”.
In the case of “QVQLVESGGGLVQAGGSLRLICAASGFTFSGNTMGWYRQAPGKERELVATISRTGGITYYADSVKGRFTISRDNAKNTVYLQMNSLKPEDTAVYYCNRRYYYFVYPDDYWGQGTQVTVSS”, the “polyreactivity (PSR sort gate)” value is “high polyreactivity”.
As to “QVQLVESGGGLVQAGGSLRLICAASGFTFSYNAMGWYRPAPGTERELVAVITKSGGSTNYADSVKGRFTISRDNAKNTVYLQRNSLKPEDTAVYYCNRQIKKLLTTHYYWGQGTQVTVSS”, the “polyreactivity (PSR sort gate)” value is “high polyreactivity”.
On to “QVQLVESGGGLVQAGGSLRLICAASGFTFTQYVMGWYSQAPGKERELVAAINWSGGNTYYAESVKGRFTISRDNAKNTVYLQMNSLKPEDTAVYYCAAYRHRNGYDYWGQGTQVTVSS”, for which the “polyreactivity (PSR sort gate)” value is listed as “high polyreactivity”.
With “QVQLVESGGGLVQAGGSLRLICAASGFTFWDYTMGWYIQAPGKERELVAAITRSGGRTYYADSVKGRFTISRDNENNTFYLQMNSLKTEDTAVYYCAAKIWSKDEKHDYWGQGTQVTVSS”, the “polyreactivity (PSR sort gate)” value is “high polyreactivity”.
Consider “QVQLVESGGGLVQAGGSLRLICAASGFTFYRYAMGWYRPAPGKERELVAAITNIAGSTYYADSVKGRFTISRDNAKNTLYLQMNSLKPEDTAVYYCNANRLRRYDYWGQGTQVTVSS”, for which the “polyreactivity (PSR sort gate)” value was “high polyreactivity”.
As to “QVQLVESGGGLVQAGGSLRLICAASGFTIGANTMGWYREAPGKERELVAAITSGGRTYYADSVKGRFTISRDNAKNTVYLQMNSLKPEDTAVYYCAAGRPRTIFQEYGSWGQGTQVTVSS”, the “polyreactivity (PSR sort gate)” value is recorded as “high polyreactivity”.
As for “QVQLVESGGGLVQAGGSLRLICAASGIIFAYYAMGWYRQSPGKERELVAAITWSGGRTYYADSVKGRFTISRDNAKNTVYLQMNSLKPEDTSVYYCAARFTRQMYYWGQGTQVTVSS”, the “polyreactivity (PSR sort gate)” value was “high polyreactivity”.
Consider “QVQLVESGGGLVQAGGSLRLICAASGIIFDDYAMVWYRQAPGNERELVAAISVSGGSTYYADSVKGRFTISRDNAKNTVYLQMNSLKPEDTAVYYCAARLRWRYSYDYWGQGTQVTVSS”, for which the “polyreactivity (PSR sort gate)” value is on record as “high polyreactivity”.
The entry for “QVQLVESGGGLVQAGGSLRLICAASGIIFPSYAMGWYRQAPGKERELVAGISLSGGSTYYADSVKGRFTISRDNAKNTVYLQMNSLKPEDTAVYYCDTRNHYFRALRYGYWGQGTLVTVSS” is “high polyreactivity”; for “QVQLVESGGGLVQAGGSLRLICAASGIIFQYYAMGWYRQAPGKERELVAAISWSGGSTYYADSVKGRFTISRDNAKNTVYLQMNSVKPEETAVYYCNAVYYSRIVGVRIYDYWGQGTQVTVSS” it is “low polyreactivity”; for “QVQLVESGGGLVQAGGSLRLICAASGIIFTRYAMGWYRQAPGKERELVAAISTRGGSTYYADSVKGRFTISRDNAMNTVYLQMNSLKPEDTAVYYCAATNAKDGEMDYWGQGTQVTVSS” it is “high polyreactivity”.
As to “QVQLVESGGGLVQAGGSLRLICAASGIIFVGYAMGWYRQAPGKERELVAAIDGTGDSTYYADSVKGRFTISRDNAKNTVYLQMNSLKPEDTAVYYCDAEYDYRWWYGYDYWGQATQVTVSS”, the “polyreactivity (PSR sort gate)” value was “high polyreactivity”.
